Experimental data as given in patent US20260234258A1 (REPERTOIRE IMMUNE MEDICINES, published 2026).

B1: mCD8 IgG IL2 (HC) (YTS105) (antibody)
heavy: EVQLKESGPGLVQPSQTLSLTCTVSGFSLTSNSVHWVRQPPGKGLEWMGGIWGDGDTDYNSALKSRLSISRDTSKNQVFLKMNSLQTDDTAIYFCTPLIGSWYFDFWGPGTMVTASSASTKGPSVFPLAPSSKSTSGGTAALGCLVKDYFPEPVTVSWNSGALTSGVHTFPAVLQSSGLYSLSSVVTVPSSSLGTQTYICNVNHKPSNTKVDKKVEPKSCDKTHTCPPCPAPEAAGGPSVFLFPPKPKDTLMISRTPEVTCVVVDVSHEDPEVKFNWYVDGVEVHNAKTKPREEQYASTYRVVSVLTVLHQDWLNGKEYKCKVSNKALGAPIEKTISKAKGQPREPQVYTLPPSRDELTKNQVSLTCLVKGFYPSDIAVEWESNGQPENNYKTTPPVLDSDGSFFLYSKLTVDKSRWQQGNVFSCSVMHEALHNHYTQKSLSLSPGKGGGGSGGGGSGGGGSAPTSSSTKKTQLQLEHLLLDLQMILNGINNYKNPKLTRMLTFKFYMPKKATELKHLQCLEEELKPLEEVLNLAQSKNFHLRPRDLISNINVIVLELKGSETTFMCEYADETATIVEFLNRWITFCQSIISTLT
light: DIVMTQSPSSLAVSAGERVTLNCKASQNVRNNIAWYQQKPGQSPKLLIYYASYRYTGVPDRFTGDGFGTDFTLAINSVQADDAAFYYCQRIYNSPYTFGAGTKLELIRTVAAPSVFIFPPSDEQLKSGTASVVCLLNNFYPREAKVQWKVDNALQSGNSQESVTEQDSKDSTYSLSSTLTLSKADYEKHKVYACEVTHQGLSSPVTKSFNRGEC
notes: Anti-mouse CD8 IgG (clone YTS105) with human IL-2 on the C-terminus of each heavy chain
B2: hCD8 IgG IL2 1x (HC) (VH6/VK3) (antibody)
heavy 1: not shown
heavy 2: EVQLVQSGAEVKKPGATVKISCKASGYTFTDFTMHWVQQAPGKGLEWIGLVNPNNGGNIYAEKFQGRVTLTVDTSTSTAYMELSSLRSEDTAVYYCGRVPLYTSHGMDYWGQGTLVTVSSASTKGPSVFPLAPSSKSTSGGTAALGCLVKDYFPEPVTVSWNSGALTSGVHTFPAVLQSSGLYSLSSVVTVPSSSLGTQTYICNVNHKPSNTKVDKKVEPKSCDKTHTCPPCPAPEAAGGPSVFLFPPKPKDTLMISRTPEVTCVVVDVSHEDPEVKFNWYVDGVEVHNAKTKPREEQYASTYRVVSVLTVLHQDWLNGKEYKCKVSNKALGAPIEKTISKAKGQPREPQVYTLPPSRDELTKNQVSLSCAVKGFYPSDIAVEWESNGQPENNYKTTPPVLDSDGSFFLVSKLTVDKSRWQQGNVFSCSVMHEALHNHYTQKSLSLSPGK
light: EIVLTQSPATLSLSPGERATISCRASESVDSYDINSMHWYQQKPGQAPRLLIYRASHLQSGIPARFSGSGSRTDFTLTISSLEPEDFATYYCQQSNEDPLTFGQGTKLEIKRTVAAPSVFIFPPSDEQLKSGTASVVCLLNNFYPREAKVQWKVDNALQSGNSQESVTEQDSKDSTYSLSSTLTLSKADYEKHKVYACEVTHQGLSSPVTKSFNRGEC
notes: Humanized 02A01 (VH6/VK3) anti-human CD8 IgG, knob-in-hole, one human IL-2 on the C-terminus of the knob heavy chain; also called hCD8 IgG IL2 1×(HC)
B3: mCD8 Fab IL2 (LC) (YTS105) (Fab)
heavy: EVQLKESGPGLVQPSQTLSLTCTVSGFSLTSNSVHWVRQPPGKGLEWMGGIWGDGDTDYNSALKSRLSISRDTSKNQVFLKMNSLQTDDTAIYFCTPLIGSWYFDFWGPGTMVTASSASTKGPSVFPLAPSSKSTSGGTAALGCLVKDYFPEPVTVSWNSGALTSGVHTFPAVLQSSGLYSLSSVVTVPSSSLGTQTYICNVNHKPSNTKVDKKVEPKSC
light: not shown
notes: Anti-mouse CD8 Fab (clone YTS105) with human IL-2 fused to the C-terminus of the light chain
B4: mCD8 Fab Fc IL2 (LC) (YTS105) (antibody, human IgG1, kappa, L234A L235A, N297A)
heavy: EVQLKESGPGLVQPSQTLSLTCTVSGFSLTSNSVHWVRQPPGKGLEWMGGIWGDGDTDYNSALKSRLSISRDTSKNQVFLKMNSLQTDDTAIYFCTPLIGSWYFDFWGPGTMVTASSASTKGPSVFPLAPSSKSTSGGTAALGCLVKDYFPEPVTVSWNSGALTSGVHTFPAVLQSSGLYSLSSVVTVPSSSLGTQTYICNVNHKPSNTKVDKKVEPKSCDKTHTCPPCPAPEAAGGPSVFLFPPKPKDTLMISRTPEVTCVVVDVSHEDPEVKFNWYVDGVEVHNAKTKPREEQYASTYRVVSVLTVLHQDWLNGKEYKCKVSNKALGAPIEKTISKAKGQPREPQVYTLPPSRDELTKNQVSLWCLVKGFYPSDIAVEWESNGQPENNYKTTPPVLDSDGSFFLYSKLTVDKSRWQQGNVFSCSVMHEALHNHYTQKSLSLSPGK
chain: DKTHTCPPCPAPEAAGGPSVFLFPPKPKDTLMISRTPEVTCVVVDVSHEDPEVKFNWYVDGVEVHNAKTKPREEQYASTYRVVSVLTVLHQDWLNGKEYKCKVSNKALGAPIEKTISKAKGQPREPQVYTLPPSRDELTKNQVSLSCAVKGFYPSDIAVEWESNGQPENNYKTTPPVLDSDGSFFLVSKLTVDKSRWQQGNVFSCSVMHEALHNHYTQKSLSLSPGK
light: not shown
notes: One-armed Fab-Fc (clone YTS105) with human IL-2 on the C-terminus of the light chain; also called mCD8 Fc-IL2(LC); CD8Fc-IL2
B5: mCD8IgG (anti-mouse CD8 antibody control, clone YTS105) (antibody, not shown: a dimerising Fc or GST)
heavy: B3 heavy
light: B1 light
notes: Control without IL-2

Legend:
[1] = molecular target: T1, mouse CD8 (on CD8 T cells of mouse splenocytes) (mouse, UniProt P01731 28-247); test: flow cytometry on mouse splenocytes, CD8 T cells; IL2 loading detected with anti-IL2; median fluorescence intensity
T1 construct: whole, on cells; also called mCD8
T1 sequence (P01731 28-247): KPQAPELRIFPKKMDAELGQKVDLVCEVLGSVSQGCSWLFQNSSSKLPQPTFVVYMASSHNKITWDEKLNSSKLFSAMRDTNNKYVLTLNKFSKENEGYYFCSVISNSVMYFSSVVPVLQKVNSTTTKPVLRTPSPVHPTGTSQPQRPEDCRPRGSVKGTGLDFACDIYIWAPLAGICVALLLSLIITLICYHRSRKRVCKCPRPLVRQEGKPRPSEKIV
Method: (§1) Anti-mouse CD8-human IL2 molecules were evaluated for their ability to specifically bind and load IL2 on CD8 T cells. Briefly, 1×10⁵ mouse splenocytes were incubated with indicated CD8-IL2 (human FC receptor) molecules from one of the concentrations ranging from 0.05 pM to 500 nM. Anti-mouse CD8 antibody was used as control. Following one hour incubation with molecules, splenocytes were washed twice with RPMI complete medium and once with PBS. The washed splenocytes were stained with anti-TL2 (MQ1-17H12), anti-human kappa (MHK-49) and lineage surface makers CD4(RM4-4), NK1.1(PK136) and CD19(6D5) for 20 minutes, after which the cells were washed and analyzed using flow cytometer. Mean fluorescence intensity data was analyzed using four parameter nonlinear regression method to calculated binding affinity in GraphPad prism.

[2] = molecular target: T1, mouse CD8 (on CD8 T cells of mouse …); test: flow cytometry on mouse splenocytes, CD8 T cells; bound molecule detected with anti-human kappa; median fluorescence intensity
Method: as §1

[3] = molecular target: T1, mouse CD8 (on CD8 T cells of mouse …); test: cell-based or functional assay
[4] = molecular target: T1, mouse CD8 (on CD8 T cells of mouse …); test: flow cytometry on mouse splenocytes, gated cell types; IL2 loading detected with anti-IL2; median fluorescence intensity
Method: as §1

[5] = molecular target: T2, human CD8 (on CD8 T cells of human PBMC) (human, UniProt P01732 22-235); test: flow cytometry on human PBMC, gated cell types; IL2 loading detected with anti-IL2; MFI
T2 construct: The assay used native CD8 on human PBMC; also called hCD8; NP_001139345.1
T2 sequence (P01732 22-235 limits assumed): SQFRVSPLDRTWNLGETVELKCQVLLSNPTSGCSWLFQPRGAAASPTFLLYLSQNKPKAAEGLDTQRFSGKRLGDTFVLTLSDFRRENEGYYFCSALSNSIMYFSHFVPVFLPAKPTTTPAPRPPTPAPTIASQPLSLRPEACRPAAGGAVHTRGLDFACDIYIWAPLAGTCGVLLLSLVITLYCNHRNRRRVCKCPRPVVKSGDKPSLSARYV
Method: (§2) Anti-human CD8-human IL2 molecules were evaluated for their ability to specifically bind and load IL2 on CD8 T cells. Briefly, […] human PBMC were co-cultured with indicated CD8-IL2 (human FC receptor) molecules from one of the concentrations ranging from 0.05 pM to 0.4 nM. Following one hour incubation with molecules, PBMC were washed twice with RPMI complete medium and washed once with PBS. The washed cells were stained with anti-IL2 (MQ1-17H12), anti-human kappa (MHK-49) and lineage surface markers CD3(UCHT1), CD4(SK3) and NK(HCD56) for 20 minutes, after which the cells were washed and analyzed using a flow cytometer. The binding affinity was quantified and represented as mean fluorescence intensity (MFI).

[6] = molecular target: T2, human CD8 (on CD8 T cells of human PBMC); test: cell-based or functional assay
[7] = molecular target: T2, human CD8 (on CD8 T cells of human PBMC); test: flow cytometry on human PBMC, CD8 T cells; bound molecule detected with anti-human kappa; MFI
Method: as §2

[8] = molecular target: T2, human CD8 (on CD8 T cells of human PBMC); test: cell-based or functional assay; remark: listed apart in the source

Row | Binder | EC50 (read off the curve) [1] [nM] | EC50 (read off the curve) [2] [nM] | Percentage of CD8 T Cell expansion at 32 pm [3] [%] | Percentage of CD8 T Cell expansion at 160 pm [3] [%] | EC50 (read off the curve) [4] [nM] | EC50 (read off the curve) [5] [nM] | EC50 pSTAT5 Activation, CD8+ T cells [6] [pM] | EC50 (read off the curve) [7] [nM] | EC50 of Proliferation (percentage Ki67), CD8+ T cells [8] [nM]
1 | B1 | ~0.05 | ~0.04 | 46.5 | 63.2 | ~0.05 |  |  |  | 
2 | B2 |  |  |  |  |  | ~0.03 | 0.448 | ~0.03 | 0.0689
3 | B3 | ~0.6 | ~0.5 | 56.4 | 59.7 | ~0.3 |  |  |  | 
4 | B4 | ~0.8 | ~0.7 | 56.1 | 60.6 | ~0.4 |  |  |  | 
5 | B5 |  | ~0.04 |  |  |  |  |  |  | 
